Measured values: doi:10.1101/2020.08.02.233536 (bioRxiv, 2020)

Molecular target: His-tagged SARS-CoV-2 RBD protein (binding studies) (SARS-CoV-2, UniProt P0DTC2)
Assay: BLI
Settings: both partners purified

B1:  (antibody, V domains shown)
VH: QVQLVQSGAEVKKPGASVKVSCKASGYTFTSYYMHWVRQAPGQGLEWMGIINSSGGSTSYAQKFQGRVTMTRDTSTSTVYMELSSLRSEDTAVYYCARPPRNYYDSSGYYQRAEYFQHWGQGTLVTVSS
VL: DIQLTQSPSSLSASVGDRVTITCQASQDISNYLNWYQQRPGKAPKLLIYDASNLETGVPSRFSGSGSGTDFTFTISSLQPEDIATYYCQQYDNPPLTFGGGTKLEIK
notes: also called somatic revertant VH R100bS
binding result: binds
